Experimental data as given in the supplement of paper PMC10567573.
± gives the standard deviation.

Experiment: protein stability index of a GFP-peptide fusion (GPS, HEK-293T) (PSI 1-6); higher = more stable
[1] = treatment: DMSO, c terminus: native
[2] = treatment: MLN4924 1 uM, 8 h, c terminus: native
[3] = treatment: DMSO, c terminus: a fixed tail appended
[4] = treatment: MLN4924 1 uM, 8 h, c terminus: a fixed tail appended
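Further: 24-mer peptide tiles fused after GFP, lentivirally expressed, FACS-sorted into six equal bins by GFP/DsRed ratio, decoded by Illumina sequencing, PSI is the read-weighted mean bin number.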

Sequence | protein stability index [1] | protein stability index [2] | protein stability index [3] | protein stability index [4]
RAASSQRAEEEDDDIKQLAAWAT [CHMP4C] | 5.34 ± 0.4 | 5.2 ± 0.2 | – | –
RAMHLMKKREKQREQMEQMKQRIA [FAM50A] | – | – | 3.27 ± 0.24 | 3.51 ± 0.14
RAQKQCRKSSFAFYQAVRDLLPVW [ANKRD9] | – | – | 2.33 ± 0.49 | 1.98 ± 0.31
RAQYDELARKNREELDKYWSQQIE [KRT18] | – | – | 3.43 ± 0.27 | 3.97 ± 0.85
RAWIPSENIQDITVNIHRLHVKRS [ZMYND11] | – | – | 2.55 ± 0.31 | 2.49 ± 0.16
RCGKFLQDGLPPTWRDFRTLEAFH [MED27] | – | – | 2.17 ± 0.33 | 2.12 ± 0.18
RDKAKMRNLETQHKVLELTAENER [CEBPB] | – | – | 4.9 ± 0.2 | 5.24 ± 0.24
RELRCKVFPIKHYQDKIRPYIQLP [TRIB1] | – | – | 2.15 ± 0.42 | 2.32 ± 0.1
RERMELLEEAKKMEMAKFRYILPV [RIPK4] | – | – | 2.48 ± 0.22 | 2.84 ± 0.4
RFRFPSPILKVQYHPRDQNKVLVC [RBBP5] | – | – | 2.32 ± 0.11 | 2.32 ± 0.21
RFRRFRFQEAAGPREALSRLQELC [ZNF263] | – | – | 2.6 ± 0.48 | 2.58 ± 0.45
RFSHMSERDLQELSIQVEEERRAR [ZMAT5] | – | – | 5.51 ± 0.56 | 4.97 ± 0.87
RGRTQLFSLNPRSGSLITAGRIDR [PCDHGA10] | – | – | 3.29 ± 0.13 | 3.31 ± 0.34
RHRQEVLCKEMVPLAEQTPLTLQS [ZSCAN9] | – | – | 4.31 ± 0.18 | 4.21 ± 0.077
RHWCMKHDELLAEHIKSLLIKNNS [INTS3] | – | – | 2.29 ± 0.12 | 2.38 ± 0.33
RKEAYGKPVDIWACGVILYILLVG [CAMK2B] | – | – | 2.95 ± 0.76 | 2.73 ± 0.7
RKLLESEECRMSGEFPSPVSISII [KRT71] | – | – | 2.42 ± 0.42 | 2.19 ± 0.19
RKQLQPTHCKYEGPRKARRLWFA | 2.85 ± 0.39 | 3.04 ± 0.13 | – | –
RKRMGTRRGRHEQSPTSRPRKVSS [C22orf15] | – | – | 4.7 ± 0.25 | 4.59 ± 0.13
RLEREERNQTQVLRQQQDEAYLAS [FAF2] | – | – | 4.96 ± 0.21 | 5 ± 0.15
RLGELFNPYYDPLQWKSSHFERRD [CHGB] | – | – | 2.45 ± 0.28 | 2.64 ± 0.24
RLLLAGAEVQAKLENAEVLELTVR [HES6] | – | – | 2.37 ± 0.38 | 2.63 ± 0.49
RLMRDMAQLRLQLEVSQLEGSLQQ [SMG5] | – | – | 2.39 ± 0.43 | 2.6 ± 0.3

Sequence | protein stability index [1] | protein stability index [2] | protein stability index [3] | protein stability index [4]
RLNYDRKELEKRREESQHEIKDVL [PPFIA4] | – | – | 3.65 ± 0.42 | 4.76 ± 0.3
RLRGLLRVLRGRPGAGSRRRGRMA [FBXO33] | – | – | 2.6 ± 0.61 | 3.14 ± 0.69
RLSVELTSSLFRTEPMAWNETADL [CTNNB1] | – | – | 2.83 ± 0.2 | 3.03 ± 0.31
RLVDAVLGAEIRNGMAIIRPPGHH [HDAC6] | – | – | 1.96 ± 0.17 | 2.02 ± 0.35
RMSYGGSTCHAYSNTRDRYGRSWE [RBMY1A1] | – | – | 2.62 ± 0.21 | 2.46 ± 0.099
RNERSIQEKLQVLMAEGLLPAVKV [SMG5] | – | – | 2.69 ± 0.26 | 2.6 ± 0.22
RNSGPVVEKLKQMQEFFGLKVTGK [MMP1] | – | – | 3.16 ± 0.079 | 3.14 ± 0.39
RNSTPPSLARNPAPGVLTNKRKTY [ZC2HC1A] | – | – | 4.86 ± 0.21 | 4.68 ± 0.17
RPDTGDDAAGHGFCYCAGSHKRKR [GMCL1] | – | – | 3.81 ± 0.74 | 4.47 ± 0.55
RQPAFDTFDGSLFAVFPSLNEEQT [ETS2] | – | – | 3.89 ± 0.2 | 4.04 ± 0.31
RQSLEGLSVRSVFFGVFQSFVVLL [CLPTM1] | – | – | 2.04 ± 0.14 | 1.99 ± 0.25
RQSRRQSVSRFFADSGADPKGEPG [FBF1] | – | – | 5.04 ± 0.12 | 5.11 ± 0.17
RRILDELTLCKSDLESQVESLREE [KRT34] | – | – | 4.82 ± 0.14 | 4.75 ± 0.18
RRVPPRFSIPPTNHEIMPGGSVNI [PTPRD] | – | – | 3.38 ± 0.22 | 3.39 ± 0.22
RSHLIGHQRTHSEEETYKCLECGK [ZNF449] | – | – | 4.26 ± 0.16 | 4.39 ± 0.26
RSLLPSTEYQKQLLAAQVQLQCSP [FBF1] | – | – | 3.46 ± 0.41 | 3.73 ± 0.18
RTDSREQKLDAFLQPLSKPLSSQP [MLH1] | – | – | 4.32 ± 0.082 | 4.44 ± 0.14
RTDVGITHQHWQQFEPQLTLWDVF [RSAD1] | – | – | 2.25 ± 0.4 | 2.38 ± 0.39
RTSKSRGFAFITFENPADAKNAAK [RBMY1A1] | – | – | 3.26 ± 0.28 | 3.46 ± 0.43
RVEDAFYTLVREIRQYRLKKISKE [KRAS] | – | – | 2.3 ± 0.17 | –
RVQSVDFMRTDPVCQKLLLDAMNY [KLHL14] | – | – | 2.74 ± 0.2 | 2.64 ± 0.22
RVQVQVVERAQQVAVQEQEIARRE [FLOT1] | – | – | 5 ± 0.43 | 4.76 ± 0.67
RWLMVKIFLILIVFFIIFVVFLA [STX5] | 4.3 ± 0.23 | 4.31 ± 0.33 | – | –

Sequence | protein stability index [1] | protein stability index [2] | protein stability index [3] | protein stability index [4]
RYFPAGNVVNEGFFEENVLPPKK [GLIPR2] | 4.72 ± 0.066 | 4.59 ± 0.38 | – | –
RYHFATGVWHQMGTDGYMPRELAS [KLHDC10] | – | – | 2.6 ± 0.2 | 2.41 ± 0.24
RYILPVYGICREPVGLVMEYMETG [RIPK4] | – | – | 2.12 ± 0.62 | 2.69 ± 0.55
RYLTFFHNYNILIATLRVALPSVM [MCOLN1] | – | – | 3.31 ± 0.65 | 3.05 ± 0.54
RYPELDTPKLDCFLSGMEAAPRTL [TBX6] | – | – | 3.5 ± 0.27 | 3.58 ± 0.2
SAENIPGCSSSGSCSQGSGILHYA [CRY1] | – | – | 2.9 ± 0.33 | 2.93 ± 0.2
SAEYVGHLRATEKMKTRELHRESS [HDAC6] | – | – | 4.62 ± 0.36 | 4.47 ± 0.4
SARDASPTPSTDAEYPANGSGADR [NCK2] | – | – | 5.51 ± 0.17 | 5.53 ± 0.25
SARYVLPDEAARARLLQEGGGGVA [DUSP5] | – | – | 4.33 ± 0.19 | 4.13 ± 0.17
SDFEWLKNELERDSKIVVPPLPGK [SNX12] | – | – | 4.07 ± 0.32 | 4.13 ± 0.14
SDFKTDKEGGQAGSGQRVPALEEA [ELOA2] | – | – | 5.61 ± 0.18 | 5.49 ± 0.22
SDLNEVPVKELAALPKATILDLSC [LRRC59] | – | – | 3.96 ± 0.052 | 4.01 ± 0.3
SDSMHIEDVEAVQKLQDVLHEALQ [ESRRG] | – | – | 3.42 ± 0.29 | 3.54 ± 0.16
SDYPSPDISPPIFRRGEKLRVISD [SLA] | – | – | 3.88 ± 0.3 | 4.2 ± 0.25
SELIVHIFSFLPAPDRLRASASCS [FBXO33] | – | – | 2.76 ± 0.14 | 1.94 ± 0.35
SEMECQNQEYKMLLDIKTRLEQEI [KRT13] | – | – | 3.72 ± 0.26 | 3.82 ± 0.32
SENLEEETENIIAANHWVLPAAEF [TRIP13] | – | – | 4.8 ± 0.26 | 4.61 ± 0.17
SFQIVLDPMLDFYSDKNAKLTKES [TENT5D] | – | – | 2.91 ± 0.43 | 3.09 ± 0.37
SGHALRILIVDWDVHHGNGTQHMF [HDAC6] | – | – | 2.74 ± 0.44 | 3.02 ± 0.75
SGKWTFQRDSKRWSRLEEFDVFSP [DLC1] | – | – | 2.46 ± 0.28 | 2.53 ± 0.34
SGLLEELNAEAGHLDPGFLASDKT [C18orf25] | – | – | 4.96 ± 0.18 | 4.76 ± 0.12
SHGANVNHTTVTNSTPLRAACFDG [FEM1B] | – | – | 4.02 ± 0.14 | 4.25 ± 0.086
SILKAMGKTKKDYQEASNLEQFVT [NECAB1] | – | – | 2.89 ± 0.41 | 3.04 ± 0.33

Sequence | protein stability index [1] | protein stability index [2] | protein stability index [3] | protein stability index [4]
SIVIFCLETLPEFRDEKDYPASTS [KCNA3] | – | – | 2.4 ± 0.54 | 2.19 ± 0.45
SIYLVGGYSWSMGAYKSSTICYCP [KLHL14] | – | – | 2.87 ± 0.46 | 2.53 ± 0.87
SKVVVPPLPGKAFLRQLPFRGDDG [SNX3] | – | – | 3.45 ± 0.17 | 3.56 ± 0.21
SLPETFGDFWRMIWEQRSATVVMM [PTPRD] | – | – | 2.69 ± 0.7 | 2.43 ± 0.83
SLQESVEDSLATVKVVLIPVGQEI [IQUB] | – | – | 2.49 ± 0.53 | 2.24 ± 0.46
SLYENDCIFDKFECVWNGSDSVIM [PPP2R2B] | – | – | 2.06 ± 0.71 | 2.07 ± 0.37
SMISMGLFSIAPLIYGSMEMFPAA [JAGN1] | – | – | 3.08 ± 0.29 | 3.23 ± 0.32
SMQYNGSYFDRGAKGGSRLCTPEG [DFFB] | – | – | 2.98 ± 0.14 | 3.35 ± 0.35
SMRLLESKKGLSFFAFEHSEEYQQ [TCF25] | – | – | 3.35 ± 0.12 | 3.3 ± 0.16
SNLCCFIPGKVIDEIYRVLRYVNS [FBXO28] | – | – | 2 ± 0.66 | 2.38 ± 0.26
SNLIRHQRIHAAERLCMGVDCTEI [ZNF263] | – | – | 3.17 ± 0.2 | 3.18 ± 0.21
SPTSGKFRRGSGSACSLLCCCGRD [MCOLN1] | – | – | 3.27 ± 0.15 | 3.56 ± 0.41
SQWKDPALSQLICFCRESRYMDQW [GADD45A] | – | – | 2.19 ± 0.19 | 2.31 ± 0.23
SRALALFDIQKIMQEKNPVHVIGV [ZNF8] | – | – | 2.52 ± 0.27 | 1.89 ± 0.39
SRFRKAYKPEQPLVRLRGGAYIGE [LOXL2] | – | – | 3.16 ± 0.26 | 2.98 ± 0.39
SRGELIPISPSTEVGGSGIGTPPS [MYBL2] | – | – | 4.74 ± 0.28 | 4.8 ± 0.15
SRGSPVRVKREFEPASAREAPASV [USP39] | – | – | 4.47 ± 0.32 | 4.49 ± 0.35
SRNRDPGRLILSTIRLRPRQVLCE [PWWP2B] | – | – | 2.68 ± 0.18 | 3.04 ± 0.25
SRPSAPFTEASMMMSLTKLADKEL [ESR2] | – | – | 3.97 ± 0.4 | 3.97 ± 0.068
SRSVEDDKEGHLVCRIGDWLQERY [CLK3] | – | – | 3.41 ± 0.23 | 3.45 ± 0.2
